For 4 molecules, Kd and Ka results are on record in PMC5897841 (2017).

To fix the notation:
B2: CK2α kinase (enzyme)
chain: SGPVPSRARVYTDVNTHRPREYWDYESHVVEWGNQDDYQLVRKLGRGKYSEVFEAINITNNEKVVVKILKPVKKKKIKREIKILENLRGGPNIITLADIVKDPVSRTPALVFEHVNNTDFKQLYQTLTDYDIRFYMYEILKALDYCHSMGIMHRDVKPHNVMIDHEHRKLRLIDWGLAEFYHPGQEYNVRVASRYFKGPELLVDYQMYDYSLDMWSLGCMLASMIFRKEPFFHGHDNYDQLVRIAKVLGTEDLYDYIDKYNIELDPRFNDILGRHSRKRWERFVHSENQHLVSPEALDFLDKLLRYDHQSRLTAREAMEHPYFYTVVK

Assay in all cases: ITC
In general terms: ITC needs no label: the signal is the heat of the interaction.

The target in experiment [1] is T1, cRAD-TPX2_((7–43)) display protein (Pyrococcus furiosus | human, UniProt O74036 108-287; O74036 302-349, K144A).
For experiment [2], the target named is T1, cRAD-TPX2_((7–43)) display protein. The source holds these as a separate data set.
The target of experiment [3] is T2, Aurora A_(D274N) kinase domain (human, UniProt O14965 122-403, D274N).
T2 sequence: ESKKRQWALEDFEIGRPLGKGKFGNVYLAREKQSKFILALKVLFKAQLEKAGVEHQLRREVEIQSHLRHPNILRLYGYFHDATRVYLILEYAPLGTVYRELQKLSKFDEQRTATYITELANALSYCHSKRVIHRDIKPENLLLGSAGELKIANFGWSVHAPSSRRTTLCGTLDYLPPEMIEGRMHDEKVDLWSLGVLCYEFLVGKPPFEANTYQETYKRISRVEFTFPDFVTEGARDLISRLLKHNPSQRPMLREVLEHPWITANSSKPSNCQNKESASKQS

The target in the experiment “CK2α kinase” is B2.
Experiment [4] addresses cRAD-CK2β_((186–200)) display protein (Pyrococcus furiosus | human, UniProt O74036 108-287; P67870 186-200; O74036 302-349, K144A).

B1: Aurora A wild-type kinase domain (untagged) (domain or fragment)
chain: FEIGRPLGKGKFGNVYLAREKQSKFILALKVLFKAQLEKAGVEHQLRREVEIQSHLRHPNILRLYGYFHDATRVYLILEYAPLGTVYRELQKLSKFDEQRTATYITELANALSYCHSKRVIHRDIKPENLLLGSAGELKIADFGWSVHAPSSRRTTLCGTLDYLPPEMIEGRMHDEKVDLWSLGVLCYEFLVGKPPFEANTYQETYKRISRVEFTFPDFVTEGARDLISRLLKHNPSQRPMLREVLEHPWI
The term Kd denotes the concentration at which binding is half-saturated. Molecule B1 gave a Kd in experiment [1] of 0.0159 µM. Further, the Ka in experiment [2] was 6.27e+07 M⁻¹.

On to LSYSYDAPSDFINFSSLDDEGDTQNIDSWFEEKANLENLKGGGCQM [linear TPX2_((7–43)) peptide], for which the Ka in experiment [3] turned out to be 8.71e+06 M⁻¹. RLYGFKIHPMAYQLQ [synthetic linear CK2β_((186–200)) peptide]: the Ka with CK2α kinase stood at 7.27e+06 M⁻¹. Take B2: the Ka in experiment [4] is 7.13e+06 M⁻¹.
